The values that follow come from patent US20020142982.

The target of data set [1] is Flag-tagged wild-type EDG-1 receptor (UniProt P21453).
Data set [2] concerns the target R231K EDG-1 mutant receptor (UniProt P21453).
For data set [3], the target named is R233K EDG-1 mutant receptor (UniProt P21453).
The target of data set [4] is T236A EDG-1 mutant receptor (UniProt P21453).
For data set [5], the target named is GST-i3 polypeptide from EDG-3 (UniProt Q99500).
Data set [6] has as its system GST-i3 polypeptide from EDG-5 [GST: P08515].
For data set [7], the target named is GST-i3T236V polypeptide (UniProt P21453).
The target of data set [8] is glutathione S-transferase (GST)-EDG-1-i3 (UniProt P21453).
Chain of glutathione S-transferase (GST)-EDG-1-i3 (P21453 other isoform, or with tags, fused parts or gaps): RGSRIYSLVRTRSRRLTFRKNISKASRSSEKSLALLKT

Chain of R231K EDG-1 mutant receptor (P21453 whole entry R231K): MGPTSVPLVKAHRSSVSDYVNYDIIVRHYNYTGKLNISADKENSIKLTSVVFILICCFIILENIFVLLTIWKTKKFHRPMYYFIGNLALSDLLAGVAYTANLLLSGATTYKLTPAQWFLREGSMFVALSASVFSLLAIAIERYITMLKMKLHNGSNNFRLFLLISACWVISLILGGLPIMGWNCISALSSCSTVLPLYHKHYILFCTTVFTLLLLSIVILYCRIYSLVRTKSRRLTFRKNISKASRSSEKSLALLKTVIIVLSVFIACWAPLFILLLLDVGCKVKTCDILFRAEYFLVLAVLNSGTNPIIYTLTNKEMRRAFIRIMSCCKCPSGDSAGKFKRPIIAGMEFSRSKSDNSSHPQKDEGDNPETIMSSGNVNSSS
Chain of Flag-tagged wild-type EDG-1 receptor (P21453 whole entry): as the sequence (P21453 whole entry R231K) above, with K231R counted along it
Chain of R233K EDG-1 mutant receptor (P21453 whole entry R233K): as the sequence (P21453 whole entry R231K) above, with K231R, R233K counted along it
Chain of T236A EDG-1 mutant receptor (P21453 whole entry T236A): as the sequence (P21453 whole entry R231K) above, with K231R, T236A counted along it
Chain of GST-i3 polypeptide from EDG-3 (Q99500 217-243): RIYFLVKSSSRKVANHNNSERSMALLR
Chain of GST-i3 polypeptide from EDG-5 [GST: P08515] (P08515 whole entry, looked up): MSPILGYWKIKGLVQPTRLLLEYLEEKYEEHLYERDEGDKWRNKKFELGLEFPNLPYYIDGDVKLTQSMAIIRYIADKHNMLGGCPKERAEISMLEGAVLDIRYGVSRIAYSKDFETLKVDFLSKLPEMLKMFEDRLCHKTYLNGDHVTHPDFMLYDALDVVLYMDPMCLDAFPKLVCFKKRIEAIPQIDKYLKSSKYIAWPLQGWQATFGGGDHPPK
Chain of GST-i3T236V polypeptide (P21453 whole entry T236V, looked up, tested part not stated): as the sequence (P21453 whole entry R231K) above, with K231R, T236V counted along it

With p90^RSK (active kinase), the “in vitro phosphorylation of immunoprecipitated receptor” value in data set [1], in data set [2], in data set [3] and in data set [4] was “in vitro phosphorylation with p90^RSK was similar in wild-type as well as in the three mutants” each time.
With recombinant, active Akt, the “in vitro phosphorylation of immunoprecipitated receptor” value in data set [1], in data set [2], in data set [3] and in data set [4] was “All three mutants were phosphorylated very poorly by the active Akt kinase in an in vitro phosphorylation reaction when compared to the wild-type EDG-1” in each case. Further, the “in vitro phosphorylation (32P incorporation, SDS-PAGE)” value in data set [5], in data set [6] and in data set [8] was “only the GST-EDG-1-i3 was phosphorylated by Akt” each time. Besides, the “in vitro phosphorylation (32P-phosphate incorporation)” value in data set [7] is reported as “^32P-phosphate incorporation into the GST-i3T236V polypeptide was significantly reduced upon incubation with Akt”.
